From patent publication US20220162314A1 (ASHER BIOTHERAPEUTICS, published 2022)

B1: xhCD8v7 (antibody, human IgG1, V domains shown)
VH: EVQLVESGGGLVQPGRSLRLSCAASGFTFDDYAMHWVRQAPGKGLEWVAVISYDGSNKYYADSVKGRFTISRDNSKNTLYLQMNSLRAEDTAVYYCAKDRIGWYDYDAFDIWGQGTMVTVSS
VL: EIVLTQSPATLSVTPGEGATLSCRASHSVGSNLAWYQQKPGQAPRLLIYDASNRATGIPARFSGSGSGTDFTLTISSLEPEDLAVYYCQQRSNWPPTFGQGTRLEIK
B2: xhCD8v13 (antibody, human IgG1, V domains shown)
VH: QVQLVQSGAEVKKPGSSVKVSCKASGGTFSSYAISWVRQAPGQGLEWMGGIIPGYATANYAQKFQGRVTITADESTSTAYMELSSLRSEDTAVYYCARDAAGIRLFADWGQGTLVTVSS
VL: DIQMTQSPSSLSASVGDRVTITCRASQEIYGALNWYQQKPGKAPKLLIYGATNLQSGVPSRFSGSGSGTDFTLTISSLQPEDFATYYCQSTYDAPWTFGGGTKVEIK
notes: Improved version based on xhCD8v2
B3: xhCD8v12 (antibody, human IgG1, V domains shown)
VH: QVQLVQSGAEVKKPGSSVKVSCKASGGTFSSYAISWVRQAPGQGLEWMGGIIPGYATANYAQKFQGRVTITADESTSTAYMELSSLRSEDTAVYYCARDAAGIRLFADWGQGTLVTVSS
VL: DIQMTQSPSSLSASVGDRVTITCRASQSIYGALNWYQQKPGKAPKLLIYGASNLQSGVPSRFSGSGSGTDFTLTISSLQPEDFATYYCQSTYTAPWTFGGGTKVEIK
notes: as for B2
B4: xhCD8v5 (antibody, human IgG1, V domains shown)
VH: QVQLVQSGAEVKKPGSSVKVSCKASGSGFRGHAISWVRQAPGQGLEWMGGIIPGHAKANYAQKFQGRVTITADESTSTAYMELSSLRSEDTAVYYCARDGLGIRLFADWGQGTLVTVSS
VL: DIQMTQSPSSLSASVGDRVTITCRASQKIYGALNWYQQKPGKAPKLLIYGATNLQSGVPSRFSGSGSGTDFTLTISSLQPEDFATYYCQNTYDTPWTFGGGTKVEIK
B5: xhCD8v2 (antibody, human IgG1, V domains shown)
VH: QVQLVQSGAEVKKPGSSVKVSCKASGYRFHNFAISWVRQAPGQGLEWMGGIIPGHAKANYAQKFQGRVTITADESTSTAYMELSSLRSEDTAVYYCARDGLGIRLFADWGQGTLVTVSS
VL: DIQMTQSPSSLSASVGDRVTITCRASQEIYGALNWYQQKPGKAPKLLIYGATNLQSGVPSRFSGSGSGTDFTLTISSLQPEDFATYYCQDIYDAPWTFGGGTKVEIK
B6: xhCD8v3 (antibody, human IgG1, V domains shown)
VH: QVQLVQSGAEVKKPGSSVKVSCKASGSRFYKFAISWVRQAPGQGLEWMGGIIPGHAKANYAQKFQGRVTITADESTSTAYMELSSLRSEDTAVYYCARDGLGIRLFADWGQGTLVTVSS
VL: DIQMTQSPSSLSASVGDRVTITCRASQEIYGALNWYQQKPGKAPKLLIYGATNLQSGVPSRFSGSGSGTDFTLTISSLQPEDFATYYCQDIYDAPWTFGGGTKVEIK
B7: xhCD8v9 (antibody, human IgG1, V domains shown)
VH: QVQLVQSGAEVKKPGSSVKVSCKASGGTFSSYAISWVRQAPGQGLEWMGGIIPGAATANYAQKFQGRVTITADESTSTAYMELSSLRSEDTAVYYCARDAAGIRLFADWGQGTLVTVSS
VL: DIQMTQSPSSLSASVGDRVTITCRASQEIYGALNWYQQKPGKAPKLLIYGATNLQSGVPSRFSGSGSGTDFTLTISSLQPEDFATYYCQSTYDAPWTFGGGTKVEIK
notes: as for B2
B8: xhCD8v4 (antibody, human IgG1, V domains shown)
VH: QVQLVQSGAEVKKPGSSVKVSCKASGYTFTKYAISWVRQAPGQGLEWMGGIIPGHAKANYAQKFQGRVTITADESTSTAYMELSSLRSEDTAVYYCARDGLGIRLFADWGQGTLVTVSS
VL: DIQMTQSPSSLSASVGDRVTITCRASQKIYGALNWYQQKPGKAPKLLIYGATNLQSGVPSRFSGSGSGTDFTLTISSLQPEDFATYYCQNTYDTPWTFGGGTKVEIK
B9: xhCD8v10 (antibody, human IgG1, V domains shown)
VH: EVQLVESGGGLVQPGGSLRLSCAASGFTFSSYAMSWVRQAPGKGLEWVSDITYAGGSTAYADSVKGRFTISRDNAKNSLYLQMNSLRAEDTAVYYCARSNAYAWDDALDIWGQGTMVTVSS
VL: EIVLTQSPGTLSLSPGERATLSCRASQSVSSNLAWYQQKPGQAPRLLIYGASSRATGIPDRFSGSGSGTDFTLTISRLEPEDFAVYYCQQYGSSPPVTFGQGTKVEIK
notes: Improved version based on xhCD8v6
B10: xhCD8v14 (antibody, human IgG1, V domains shown)
VH: EVQLVESGGGLVQPGGSLRLSCAASGFTFSSYAMSWVRQAPGKGLEWVSDISYAGGSTAYADSVKGRFTISRDNAKNSLYLQMNSLRAEDTAVYYCARSNAYAWDDALDIWGQGTMVTVSS
VL: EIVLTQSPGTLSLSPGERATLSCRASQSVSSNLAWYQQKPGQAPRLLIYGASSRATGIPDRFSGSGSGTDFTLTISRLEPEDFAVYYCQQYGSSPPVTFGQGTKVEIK
notes: as for B9
B11: xhCD8v15 (antibody, human IgG1, V domains shown)
VH: EVQLVESGGGLVQPGGSLRLSCAASGFTFSSYAMSWVRQAPGKGLEWVSDISYAGGSTAYADSVKGRFTISRDNAKNSLYLQMNSLRAEDTAVYYCARSNAYAWDDALDIWGQGTLVTVSS
VL: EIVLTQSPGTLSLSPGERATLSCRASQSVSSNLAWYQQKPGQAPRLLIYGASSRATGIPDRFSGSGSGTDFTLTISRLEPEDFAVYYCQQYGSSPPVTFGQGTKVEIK
notes: as for B9
B12: xhCD8v11 (antibody, human IgG1, V domains shown)
VH: EVQLVESGGGLVQPGGSLRLSCAASGFTFSSYAMSWVRQAPGKGLEWVSDITYAGGSTAYADSVKGRFTISRDNAKNSLYLQMNSLRAEDTAVYYCARSNAYAWDDALDIWGQGTLVTVSS
VL: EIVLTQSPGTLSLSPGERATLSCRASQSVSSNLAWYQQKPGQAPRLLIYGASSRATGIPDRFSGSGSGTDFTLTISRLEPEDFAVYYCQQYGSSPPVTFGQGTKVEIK
notes: as for B9

What was measured:
[1] = molecular target: T1, CD8 on human CD8+ T cells (CD3+CD8a+CD8b+ cells of hPBMCs) (human, UniProt P01732 22-235; P10966 22-210); assay: flow cytometry on human PBMCs, CD8+ T cells (CD3+CD8a+CD8b+), anti-human Fc MFI
T1 construct: whole, on cells; also called CD8ab+ T cells
T1 sequence (P01732 22-235, chain 1 of 2): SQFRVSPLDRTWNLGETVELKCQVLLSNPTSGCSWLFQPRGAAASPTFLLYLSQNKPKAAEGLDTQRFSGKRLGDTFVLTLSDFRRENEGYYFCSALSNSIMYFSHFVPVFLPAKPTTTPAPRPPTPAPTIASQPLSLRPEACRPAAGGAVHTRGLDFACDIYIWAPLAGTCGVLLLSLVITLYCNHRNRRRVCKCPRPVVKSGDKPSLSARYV
T1 sequence (P10966 22-210, chain 2 of 2): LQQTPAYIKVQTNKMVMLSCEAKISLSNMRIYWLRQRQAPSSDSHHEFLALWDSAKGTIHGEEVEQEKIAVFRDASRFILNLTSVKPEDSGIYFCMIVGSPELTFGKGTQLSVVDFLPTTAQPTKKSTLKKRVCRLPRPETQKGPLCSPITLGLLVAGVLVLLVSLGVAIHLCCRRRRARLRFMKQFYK
Method: (§1) Binding of CD8ab antibodies to T cells (FIG. 4) and NK cells (FIG. 5) in hPBMCs was detected by staining with anti-human Fc antibody conjugated to APC. Anti-hFc was used to measure the binding of CD8 antibodies containing hFc. Mean fluorescence intensity (MFI) of staining with anti-hFc is used to denote binding. Binding of anti-hFc was determined in CD3+CD8a+CD8b+ cells (CD8+ T cells) and CD3-CD56+CD8a+ cells (CD8+NK cells).
(§2) The binding of CD8ab antibodies on cells was determined by flow cytometry. Freshly isolated PBMCs were incubated with CD8ab antibodies for 2 hours at 4° C. Cells were then stained with antibodies against surface markers CD3 (UCHT1), CD4 (RPA-T4), CD8a (SK1), CD56 (HCD56), and anti-human Fc antibody (HP6017). Anti-human Fc antibody was used to measure the binding of CD8ab antibodies containing hFc. Stained cells were washed and analyzed by flow cytometry and mean fluorescence intensity (MFI) of staining with anti-hFc was used to denote binding.

[2] = molecular target: T2, CD8aa on human CD8+ NK cells (CD3-CD56+CD8a+ cells of hPBMCs) (human, UniProt P01732 22-235); assay: flow cytometry on human PBMCs, CD8+ NK cells (CD3-CD56+CD8a+), anti-human Fc MFI
T2 construct: whole, on cells; also called CD8aa+ NK cells
T2 sequence (P01732 22-235): as the sequence (P01732 22-235, chain 1 of 2) above
Method: as §1, §2

[3] = molecular target: T3, Recombinant human CD8ab protein (extracellular domains of CD8a and CD8b with leucine zippers and tags) (human, UniProt P01732 22-182; P10966 22-170); assay: ELISA: antigen coated on the plate, antibody titrated, anti-IgG (Fc)-HRP and TMB, A450
T3 construct: extracellular domain; Secreted from HEK293 cells; also called recombinant CD8ab; soluble CD8ab antigen; not shown: acidic leucine zipper; 8x Histidine tag; basic leucine zipper; Strep-tag II
T3 sequence (P01732 22-182, chain 1 of 2): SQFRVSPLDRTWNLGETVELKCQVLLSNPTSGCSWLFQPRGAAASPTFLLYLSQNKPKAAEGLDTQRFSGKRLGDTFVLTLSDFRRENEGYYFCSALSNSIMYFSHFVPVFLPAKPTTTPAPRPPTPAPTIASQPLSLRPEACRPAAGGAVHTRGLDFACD
T3 sequence (P10966 22-170, chain 2 of 2): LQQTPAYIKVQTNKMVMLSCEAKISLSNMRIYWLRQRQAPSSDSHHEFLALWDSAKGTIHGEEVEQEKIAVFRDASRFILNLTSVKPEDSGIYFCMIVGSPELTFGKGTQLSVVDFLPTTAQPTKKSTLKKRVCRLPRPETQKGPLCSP
Method: (§3) Binding specificity of the antibodies was determined by ELISA. […] of recombinant CD8ab, CD8a (Sino biological), CD8b (Sino biological) and ovalbumin (Sigma) or Erb2 (human epidermal growth factor receptor 2) (Sino biological) in PBS were coated onto the maxisorp plate overnight at 4° C. Ovalbumin or Erb2 was used as negative control. Plate was then blocked with casein blocking solution (Thermo Scientific) for 1 hr at room temperature. After blocking, plate was washed with wash buffer (PBS/0.05% Tween-20). Next, dilution of antibody from 30 nM to 0.0009 nM in PBS/0.5% BSA/0.05% Tween-20 was added onto the plate and incubated for 1-2 hr at room temperature. After incubation, plate was washed, and incubated with anti-human IgG (Fc specific)-HRP conjugate or anti-mouse IgG (Fc specific)-HRP conjugate (Jackson Immunoresearch) in PBS/0.5% BSA/0.05% Tween-20 for 1 hr. Binding was detected by adding TMB substrate (SeraCare) to the plate, followed by stopping solution of 0.1M HCl. Binding absorbance was read using GloMax® Discover Microplate Reader (Promega).

[4] = molecular target: T4, Recombinant CD8a (Sino biological) (human, UniProt P01732 22-182); assay: as above
T4 construct: also called CD8a alone
T4 sequence (P01732 22-182 limits assumed): as the sequence (P01732 22-182, chain 1 of 2) above
Method: as §3

[5] = molecular target: T5, Recombinant CD8b (Sino biological) (human, UniProt P10966 22-170, limits assumed); assay: as above
T5 construct: also called CD8b alone
T5 sequence (P10966 22-170 limits assumed): as the sequence (P10966 22-170, chain 2 of 2) above
Method: as §3

[6] = molecular target: T3, Recombinant human CD8ab protein …; assay: SPR (Biacore T200, 37 C), antibody captured by anti-human IgG Fc, soluble CD8ab as analyte, 1:1 model
Method: (§4) Recombinant human CD8ab protein was generated. […] Antibodies were first captured on an anti-hJgG-Fc CM5 or CM4 surface prepared using the Human Antibody Capture Kit (Cytiva). […] Dissociation was monitored for 5-10 minutes, and the anti-hJgG-Fc surface was regenerated with 3M MgCl2 before recapturing mAb in each subsequent cycle. Binding data were analyzed by Biacore T200 Evaluation Software version 3.2 using a 1:1 binding model.

[7] = molecular target: T5, Recombinant CD8b (Sino biological); assay: ELISA, coated recombinant CD8b
Method: as §3

[8] = molecular target: T4, Recombinant CD8a (Sino biological); assay: ELISA, coated recombinant CD8a, antibody 30 nM to 0.0009 nM
Method: as §3

[9] = molecular target: T3, Recombinant human CD8ab protein …; assay: SPR as in Example 1 (antibody captured, soluble CD8ab as analyte)
Method: as §4

Row | Binder | Kd [6] [nM] | koff [6] [s⁻¹] | kon [6] [M⁻¹ s⁻¹] | binding result [7] | binding result [8] | Kd [9] [nM] | koff [9] [s⁻¹] | kon [9] [M⁻¹ s⁻¹] | further results
1 | B1 | 1.08 | 0.000922 | 855000 | – | – | – | – | – | EC50 (read off the curve) [1]: ~0.05 nM; binding result [2]: no binding (tested: 100 nM); EC50 (read off the curve) [3]: ~0.09 nM; binding result [4]: no binding (tested: 30 nM); binding result [5]: no binding (tested: 30 nM)
2 | B2 | – | – | – | binds | no binding (tested: 30 nM) | 81.8 | 0.0301 | 368000 | –
3 | B3 | – | – | – | – | – | 105 | 0.0271 | 259000 | EC50 (read off the curve) [3]: ~0.02 nM; binding result [4]: no binding (tested: 30 nM); EC50 (read off the curve) [5]: ~0.05 nM
4 | B4 | 117 | 0.0419 | 357000 | binds | no binding (tested: 30 nM) | – | – | – | –
5 | B5 | 41.6 | 0.02 | 483000 | – | – | – | – | – | EC50 (read off the curve) [3]: ~0.03 nM; binding result [4]: no binding (tested: 30 nM); EC50 (read off the curve) [5]: ~0.06 nM
6 | B6 | 72.3 | 0.0379 | 524000 | binds | no binding (tested: 30 nM) | – | – | – | –
7 | B7 | – | – | – | binds | no binding (tested: 30 nM) | 121 | 0.0273 | 225000 | –
8 | B8 | 137 | 0.0493 | 360000 | binds | no binding (tested: 30 nM) | – | – | – | –
9 | B9 | – | – | – | – | – | 36.4 | 0.00386 | 106000 | –
10 | B10 | – | – | – | – | – | 52.9 | 0.00855 | 162000 | –
11 | B11 | – | – | – | – | – | 94.3 | 0.0175 | 186000 | –
12 | B12 | – | – | – | – | – | 37.8 | 0.00361 | 95500 | –
